# Experimental data as given in patent US20240279318A1 (NANJING LEGEND BIOTECH, published 2024).
# Substitutions are numbered along the chain they refer to.
# B1: AS170036 VL1VH1 HL107Q (scFv)
# scFv: QSALTQPRSVSGSPGQSVTISCAGTSSDVGSENYVSWYQQHPGKAPKLMIYQVNKRASGVPDRFSGSKSGNTASLTISGLQAEDEADYYCASYRSSDHNIVFGGGTKLTVLGGGGSGGGGSGGGGSEVQLVESGGGLVQPGGSLRLSCAASGFTFSSYAMSWVRQAPGKGLEWVSTINSGTGSPYYADSVKGRFTISRDNSKNTLYLQMNSLRAEDTAVYYCAKNFFDGSWFQGPPAMDYWGQGTLVTVSSHHHHHH
# B2: AS170036 VL1VH1 HL107S (scFv)
# scFv: B1 scFv with Q233S
# B3: AS170036 VL1VH1 HL107T (scFv)
# scFv: B1 scFv with Q233T
# B4: AS170036 VL1VH1 HL107V (scFv)
# scFv: B1 scFv with Q233V
# B5: AS170036 VL1VH1 HP58A (scFv)
# scFv: B1 scFv with P184A, Q233L
# B6: AS170036 VL1VH1 HP58D (scFv)
# scFv: B1 scFv with P184D, Q233L
# B7: AS170036 VL1VH1 HP58E (scFv)
# scFv: B1 scFv with P184E, Q233L
# B8: AS170036 VL1VH1 HP58F (scFv)
# scFv: B1 scFv with P184F, Q233L
# B9: AS170036 VL1VH1 HP58G (scFv)
# scFv: B1 scFv with P184G, Q233L
# B10: AS170036 VL1VH1 HP58H (scFv)
# scFv: B1 scFv with P184H, Q233L
# B11: AS170036 VL1VH1 HP58K (scFv)
# scFv: B1 scFv with P184K, Q233L
# B12: AS170036 VL1VH1 HP58M (scFv)
# scFv: B1 scFv with P184M, Q233L
# B13: AS170036 VL1VH1 HP58N (scFv)
# scFv: B1 scFv with P184N, Q233L
# B14: AS170036 VL1VH1 HP58Q (scFv)
# scFv: B1 scFv with P184Q, Q233L
# B15: AS170036 VL1VH1 HP58R (scFv)
# scFv: B1 scFv with P184R, Q233L
# B16: AS170036 VL1VH1 HP58S (scFv)
# scFv: B1 scFv with P184S, Q233L
# B17: AS170036 VL1VH1 HP58T (scFv)
# scFv: B1 scFv with P184T, Q233L
# B18: AS170036 VL1VH1 HP58V (scFv)
# scFv: B1 scFv with P184V, Q233L
# B19: AS170036 VL1VH1 HP58W (scFv)
# scFv: B1 scFv with P184W, Q233L
# B20: AS170036 VL1VH1 HP58Y (scFv)
# scFv: B1 scFv with P184Y, Q233L
# B21: AS170036 VL1VH1 HP109A (scFv)
# scFv: B1 scFv with Q233L, P235A
# B22: AS170036 VL1VH1 HP109N (scFv)
# scFv: B1 scFv with Q233L, P235N
# B23: AS170036 VL1VH1 HP109T (scFv)
# scFv: B1 scFv with Q233L, P235T
# B24: AS170036 VL1VH1 HP110A (scFv)
# scFv: B1 scFv with Q233L, P236A
# B25: AS170036 VL1VH1 HP110D (scFv)
# scFv: B1 scFv with Q233L, P236D
# B26: AS170036 VL1VH1 HP110E (scFv)
# scFv: B1 scFv with Q233L, P236E
# B27: AS170036 VL1VH1 HP110G (scFv)
# scFv: B1 scFv with Q233L, P236G
# B28: AS170036 VL1VH1 HP110I (scFv)
# scFv: B1 scFv with Q233L, P236I
# B29: AS170036 VL1VH1 HP110L (scFv)
# scFv: B1 scFv with Q233L, P236L
# B30: AS170036 VL1VH1 HP110N (scFv)
# scFv: B1 scFv with Q233L, P236N
# B31: AS170036 VL1VH1 HP110Q (scFv)
# scFv: B1 scFv with Q233L, P236Q
# B32: AS170036 VL1VH1 HP110S (scFv)
# scFv: B1 scFv with Q233L, P236S
# B33: AS170036 VL1VH1 HP110T (scFv)
# scFv: B1 scFv with Q233L, P236T
# B34: AS170036 VL1VH1 HP110V (scFv)
# scFv: B1 scFv with Q233L, P236V
# B35: AS170036 VL1VH1 HS53A (scFv)
# scFv: B1 scFv with S179A, Q233L
# B36: AS170036 VL1VH1 HS53T (scFv)
# scFv: B1 scFv with S179T, Q233L
# B37: AS170036 VL1VH1 HS57A (scFv)
# scFv: B1 scFv with S183A, Q233L
# B38: AS170036 VL1VH1 HS57D (scFv)
# scFv: B1 scFv with S183D, Q233L
# B39: AS170036 VL1VH1 HS57F (scFv)
# scFv: B1 scFv with S183F, Q233L
# B40: AS170036 VL1VH1 HS57N (scFv)
# scFv: B1 scFv with S183N, Q233L
# B41: AS170036 VL1VH1 HS57T (scFv)
# scFv: B1 scFv with S183T, Q233L
# B42: AS170036 VL1VH1 HS57W (scFv)
# scFv: B1 scFv with S183W, Q233L
# B43: AS170036 VL1VH1 HS57Y (scFv)
# scFv: B1 scFv with S183Y, Q233L
# B44: AS170036 VL1VH1 HW105F (scFv)
# scFv: B1 scFv with W231F, Q233L
# B45: AS170036 VL1VH1 HW105M (scFv)
# scFv: B1 scFv with W231M, Q233L
# B46: LD97E (scFv)
# scFv: B1 scFv with D97E, Q233L
# notes: AS170036 VL1VH1 scFv mutein
# B47: LD97I (scFv)
# scFv: B1 scFv with D97I, Q233L
# notes: AS170036 VL1VH1 scFv mutein
# B48: LD97L (scFv)
# scFv: B1 scFv with D97L, Q233L
# notes: AS170036 VL1VH1 scFv mutein
# B49: LD97M (scFv)
# scFv: B1 scFv with D97M, Q233L
# notes: AS170036 VL1VH1 scFv mutein
# B50: LD97P (scFv)
# scFv: B1 scFv with D97P, Q233L
# notes: AS170036 VL1VH1 scFv mutein
# Target: T1, AFP158/HLA-A*02:01 complex (human)
# T1 construct: biotinylated on the BSP by BirA for ELISA and panning; also called biotinylated AFP158/HLA-A*02:01 complex; Bio-AFP158
# Assay: SPR, crude scFv captured;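 note: Peptide–MHC complex flowed at several concentrations over sensorchip-captured scFv, Kd derived from on- and off-rates obtained from the association and dissociation curves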
# Protocol: (§1) The experiment was carried out as follows. The crude scFv protein were captured onto the sensorchip. Different concentrations (320, 160, 40 nM) of AFP158/HLA-A*02:01 complex flowed over the sensorchip surface, and were allowed to bind the antibody fragment for 100 s followed by injection of the running buffer to allow dissociation of the complex. On-rate (kd) and off-rate (kd) were calculated based on association and dissociation curve, and were used to estimate the equilibrium dissociation constant (KD).
row,Binder,Kd
1,B1,1600 nM
2,B2,4100 nM
3,B3,2800 nM
4,B4,2500 nM
5,B5,380 nM
6,B6,660 nM
7,B7,600 nM
8,B8,1700 nM
9,B9,320 nM
10,B10,1000 nM
11,B11,860 nM
12,B12,1500 nM
13,B13,1500 nM
14,B14,500 nM
15,B15,1200 nM
16,B16,780 nM
17,B17,750 nM
18,B18,1200 nM
19,B19,2700 nM
20,B20,3500 nM
21,B21,2700 nM
22,B22,4500 nM
23,B23,5400 nM

row,Binder,Kd
1,B24,210 nM
2,B25,540 nM
3,B26,150 nM
4,B27,260 nM
5,B28,1500 nM
6,B29,1500 nM
7,B30,1200 nM
8,B31,300 nM
9,B32,300 nM
10,B33,180 nM
11,B34,400 nM
12,B35,1200 nM
13,B36,650 nM
14,B37,210 nM
15,B38,200 nM
16,B39,180 nM
17,B40,170 nM
18,B41,220 nM
19,B42,380 nM
20,B43,200 nM
21,B44,1400 nM
22,B45,1200 nM

# Target: T2, AFP158/HLA-A*02:01 complex (human)
# T2 construct: flowed over the chip in SPR; also called AFP158 pro
# Assay: SPR, KD ratio to AS170036 VL1VH1;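 note: crude scFv captured on a sensor chip, peptide–HLA complex passed over at several concentrations, association then buffer dissociation, KD derived from on- and off-rates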
# Protocol: as §1
row,Binder,Affinity increase
1,B46,0.4 fold
2,B47,0.4 fold
3,B48,0.4 fold
4,B49,0.4 fold
5,B50,0.3 fold

# Target: T2, AFP158/HLA-A*02:01 complex
# Assay: SPR, scFv captured, pMHC in flow;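 note: complex injected at several concentrations over crude scFv, association then running-buffer dissociation, KD estimated from kinetic on- and off-rate constants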
# Protocol: as §1
row,Binder,Kd
1,B46,690 nM
2,B47,650 nM
3,B48,640 nM
4,B49,590 nM
5,B50,790 nM

# Target: T1, AFP158/HLA-A*02:01 complex
# Assay: SPR; vs AS170036 VL1VH1;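 note: crude scFv captured on sensor chip, peptide–HLA complex flowed over at several concentrations, KD estimated from association and dissociation kinetic rates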
# Protocol: as §1
row,Binder,Affinity increase
1,B1,0.2 fold
2,B2,0.1 fold
3,B3,0.1 fold
4,B4,0.1 fold
5,B5,0.7 fold
6,B6,0.4 fold
7,B7,0.5 fold
8,B8,0.2 fold
9,B9,0.9 fold
10,B10,0.3 fold
11,B11,0.3 fold
12,B12,0.2 fold
13,B13,0.2 fold
14,B14,0.5 fold
15,B15,0.2 fold
16,B16,0.3 fold
17,B17,0.4 fold
18,B18,0.2 fold
19,B19,0.1 fold
20,B20,0.1 fold
21,B21,0.1 fold
22,B22,0.1 fold
23,B23,0.1 fold

row,Binder,Affinity increase
1,B24,1.3 fold
2,B25,0.5 fold
3,B26,1.8 fold
4,B27,1 fold
5,B28,0.2 fold
6,B29,0.2 fold
7,B30,0.2 fold
8,B31,0.9 fold
9,B32,0.8 fold
10,B33,1.3 fold
11,B34,0.6 fold
12,B35,0.2 fold
13,B36,0.4 fold
14,B37,1.2 fold
15,B38,1.2 fold
16,B39,1.4 fold
17,B40,1.5 fold
18,B41,1.1 fold
19,B42,0.6 fold
20,B43,1.2 fold
21,B44,0.2 fold
22,B45,0.2 fold
